This is an account of results in the supplement of paper PMC10567573.

The labels stand for the following.
B1: TFE3 (parent)
chain: FPSDHLGDLGDPFHLGLEDILMEE
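Note: lentivirally expressed fusions sorted by FACS into six bins by GFP to DsRed ratio, PSI derived from sequencing read proportions per bin multiplied by bin number.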

In the data set the parent is B1. The data set is described as follows: protein stability index of a GFP-peptide fusion (GPS, HEK-293T) (PSI 1-6); higher = more stable. The settings on record: c terminus: a fixed tail appended.
For FPSDHIGDLGDPFHLGLEDILMEE [L6I], the protein stability index was 3.37.

On to FPSDHDGDLGDPFHLGLEDILMEE [L6D], for which the protein stability index was 4.09.

Take FPSDHSGDLGDPFHLGLEDILMEE [L6S]: the protein stability index was found to be 3.35.

Regarding FPSDHHGDLGDPFHLGLEDILMEE [L6H], the protein stability index worked out at 3.98.

Turning to FPSDHMGDLGDPFHLGLEDILMEE [L6M], the protein stability index amounted to 3.71.

On to FPSDHYGDLGDPFHLGLEDILMEE [L6Y], for which the protein stability index came out at 2.78.

For the variant FPSDHRGDLGDPFHLGLEDILMEE [L6R], the protein stability index is 2.98.

Regarding FPSDHEGDLGDPFHLGLEDILMEE [L6E], the protein stability index was found to be 3.96.

For FPSDHVGDLGDPFHLGLEDILMEE [L6V], the protein stability index worked out at 3.81.

For the variant FPSDHFGDLGDPFHLGLEDILMEE [L6F], the protein stability index was 3.16.

For FPSDHKGDLGDPFHLGLEDILMEE [L6K], the protein stability index amounted to 3.22.

For the variant FPSDHTGDLGDPFHLGLEDILMEE [L6T], the protein stability index was determined as 3.79.

In the case of FPSDHGGDLGDPFHLGLEDILMEE [L6G], the protein stability index stood at 3.64.

Regarding FPSDHAGDLGDPFHLGLEDILMEE [L6A], the protein stability index was 3.69.

As for FPSDHQGDLGDPFHLGLEDILMEE [L6Q], the protein stability index amounted to 3.6.

In the case of FPSDHPGDLGDPFHLGLEDILMEE [L6P], the protein stability index is 3.57.

As for FPSDHWGDLGDPFHLGLEDILMEE [L6W], the protein stability index came to 1.75.

As for FPSDHNGDLGDPFHLGLEDILMEE [L6N], the protein stability index is 3.85.

As for FPSDHCGDLGDPFHLGLEDILMEE [L6C], the protein stability index amounted to 3.42.

Take FPSDHLVDLGDPFHLGLEDILMEE [G7V]: the protein stability index was found to be 3.77.

Take FPSDHLKDLGDPFHLGLEDILMEE [G7K]: the protein stability index is 3.07.

Regarding FPSDHLYDLGDPFHLGLEDILMEE [G7Y], the protein stability index turned out to be 3.22.

On to FPSDHLMDLGDPFHLGLEDILMEE [G7M], for which the protein stability index amounted to 3.29.

Consider FPSDHLFDLGDPFHLGLEDILMEE [G7F], for which the protein stability index came to 2.69.

For the variant FPSDHLWDLGDPFHLGLEDILMEE [G7W], the protein stability index was determined as 2.73.

For the variant FPSDHLNDLGDPFHLGLEDILMEE [G7N], the protein stability index came out at 3.43.

For FPSDHLQDLGDPFHLGLEDILMEE [G7Q], the protein stability index stood at 3.67.

On to FPSDHLLDLGDPFHLGLEDILMEE [G7L], for which the protein stability index was 3.41.

Consider FPSDHLCDLGDPFHLGLEDILMEE [G7C], for which the protein stability index came out at 2.89.

For the variant FPSDHLADLGDPFHLGLEDILMEE [G7A], the protein stability index came to 3.94.

As to FPSDHLEDLGDPFHLGLEDILMEE [G7E], the protein stability index is 3.92.

Turning to FPSDHLPDLGDPFHLGLEDILMEE [G7P], the protein stability index was 4.3.

On to FPSDHLTDLGDPFHLGLEDILMEE [G7T], for which the protein stability index is 3.3.

Turning to FPSDHLRDLGDPFHLGLEDILMEE [G7R], the protein stability index was found to be 3.36.

Regarding FPSDHLDDLGDPFHLGLEDILMEE [G7D], the protein stability index worked out at 4.3.

As for FPSDHLSDLGDPFHLGLEDILMEE [G7S], the protein stability index was found to be 3.73.

With FPSDHLHDLGDPFHLGLEDILMEE [G7H], the protein stability index was determined as 3.11.

In the case of FPSDHLIDLGDPFHLGLEDILMEE [G7I], the protein stability index came out at 3.12.

On to FPSDHLGDLGPPFHLGLEDILMEE [D11P], for which the protein stability index was found to be 3.87.

For FPSDHLGDLGTPFHLGLEDILMEE [D11T], the protein stability index was determined as 2.92.

Consider FPSDHLGDLGLPFHLGLEDILMEE [D11L], for which the protein stability index is 2.89.

As to FPSDHLGDLGNPFHLGLEDILMEE [D11N], the protein stability index stood at 2.12.

FPSDHLGDLGEPFHLGLEDILMEE [D11E]: the protein stability index is 4.24.

FPSDHLGDLGKPFHLGLEDILMEE [D11K]: the protein stability index stood at 3.42.

For the variant FPSDHLGDLGCPFHLGLEDILMEE [D11C], the protein stability index was 2.74.

For FPSDHLGDLGGPFHLGLEDILMEE [D11G], the protein stability index is 3.52.

As to FPSDHLGDLGYPFHLGLEDILMEE [D11Y], the protein stability index was determined as 2.67.

For the variant FPSDHLGDLGWPFHLGLEDILMEE [D11W], the protein stability index turned out to be 1.89.

Regarding FPSDHLGDLGVPFHLGLEDILMEE [D11V], the protein stability index was determined as 3.32.

Turning to FPSDHLGDLGIPFHLGLEDILMEE [D11I], the protein stability index was found to be 3.23.

For the variant FPSDHLGDLGHPFHLGLEDILMEE [D11H], the protein stability index was determined as 2.27.

On to FPSDHLGDLGQPFHLGLEDILMEE [D11Q], for which the protein stability index is 4.41.

FPSDHLGDLGRPFHLGLEDILMEE [D11R]: the protein stability index came to 3.72.

As to FPSDHLGDLGAPFHLGLEDILMEE [D11A], the protein stability index is 3.23.

With FPSDHLGDLGFPFHLGLEDILMEE [D11F], the protein stability index was determined as 2.66.

As for FPSDHLGDLGSPFHLGLEDILMEE [D11S], the protein stability index stood at 2.13.

As to FPSDHLGDLGMPFHLGLEDILMEE [D11M], the protein stability index was determined as 3.08.

For the variant FPSDHLGDLGDPFLLGLEDILMEE [H14L], the protein stability index was determined as 3.38.

Consider FPSDHLGDLGDPFDLGLEDILMEE [H14D], for which the protein stability index worked out at 4.61.

Consider FPSDHLGDLGDPFMLGLEDILMEE [H14M], for which the protein stability index stood at 3.74.

FPSDHLGDLGDPFGLGLEDILMEE [H14G]: the protein stability index turned out to be 4.14.

For FPSDHLGDLGDPFALGLEDILMEE [H14A], the protein stability index worked out at 4.

On to FPSDHLGDLGDPFCLGLEDILMEE [H14C], for which the protein stability index worked out at 2.66.

For FPSDHLGDLGDPFILGLEDILMEE [H14I], the protein stability index is 3.44.

In the case of FPSDHLGDLGDPFQLGLEDILMEE [H14Q], the protein stability index was 4.09.

As for FPSDHLGDLGDPFELGLEDILMEE [H14E], the protein stability index was found to be 4.36.

Turning to FPSDHLGDLGDPFTLGLEDILMEE [H14T], the protein stability index was 3.64.

As for FPSDHLGDLGDPFVLGLEDILMEE [H14V], the protein stability index is 3.04.

On to FPSDHLGDLGDPFWLGLEDILMEE [H14W], for which the protein stability index was determined as 2.27.

On to FPSDHLGDLGDPFNLGLEDILMEE [H14N], for which the protein stability index was 3.67.

As to FPSDHLGDLGDPFYLGLEDILMEE [H14Y], the protein stability index was found to be 3.32.

Consider FPSDHLGDLGDPFSLGLEDILMEE [H14S], for which the protein stability index came out at 4.25.

FPSDHLGDLGDPFKLGLEDILMEE [H14K]: the protein stability index is 3.7.

Regarding FPSDHLGDLGDPFPLGLEDILMEE [H14P], the protein stability index is 4.66.

As to FPSDHLGDLGDPFFLGLEDILMEE [H14F], the protein stability index was 3.09.

For the variant FPSDHLGDLGDPFRLGLEDILMEE [H14R], the protein stability index was found to be 3.52.

As for FPSDWLGDLGDPFHLGLEDILMEE [H5W], the protein stability index came to 1.35.

Turning to FPSDPLGDLGDPFHLGLEDILMEE [H5P], the protein stability index is 3.68.

Turning to FPSDYLGDLGDPFHLGLEDILMEE [H5Y], the protein stability index is 3.18.

For the variant FPSDSLGDLGDPFHLGLEDILMEE [H5S], the protein stability index was found to be 3.81.

For FPSDRLGDLGDPFHLGLEDILMEE [H5R], the protein stability index was found to be 3.52.

Regarding FPSDQLGDLGDPFHLGLEDILMEE [H5Q], the protein stability index is 3.85.

Take FPSDTLGDLGDPFHLGLEDILMEE [H5T]: the protein stability index stood at 3.88.

FPSDVLGDLGDPFHLGLEDILMEE [H5V]: the protein stability index came out at 3.87.

For FPSDNLGDLGDPFHLGLEDILMEE [H5N], the protein stability index was 3.87.

Turning to FPSDHLGDLGDVFHLGLEDILMEE [P12V], the protein stability index came to 3.5.

As to FPSDHLGDLGDWFHLGLEDILMEE [P12W], the protein stability index stood at 2.71.

Consider FPSDHLGDLGDYFHLGLEDILMEE [P12Y], for which the protein stability index was determined as 3.4.

Turning to FPSDHLGDLGDTFHLGLEDILMEE [P12T], the protein stability index was found to be 4.24.

As to FPSDHLGDLGDEFHLGLEDILMEE [P12E], the protein stability index came to 4.15.

Regarding FPSDHLGDLGDNFHLGLEDILMEE [P12N], the protein stability index is 4.3.

FPSDHLGDLGDQFHLGLEDILMEE [P12Q]: the protein stability index is 4.29.

Turning to FPSDHLGDLGDFFHLGLEDILMEE [P12F], the protein stability index turned out to be 4.01.

For the variant FPSDHLGDLGDDFHLGLEDILMEE [P12D], the protein stability index was 4.35.
